Results published in patent publication US20140086829A1 (BIOREC S A, published 2014).

Target: T1, human GST-VEGF (human, UniProt P15692-9 27-147)
T1 construct: also called GST-VEGF humano; not shown: GST fusion partner
T1 sequence (looked up): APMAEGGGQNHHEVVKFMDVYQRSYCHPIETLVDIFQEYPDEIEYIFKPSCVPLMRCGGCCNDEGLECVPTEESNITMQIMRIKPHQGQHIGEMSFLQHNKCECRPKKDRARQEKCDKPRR
Assay: competition ELISA on coated GST-VEGF; soluble scFv 2H1 titrated; competitor phage scFv 1E9

B1: soluble scFv 2H1 antibody fragment (scFv, from another filing)
scFv: QQVQLVQSGAEVKKPGESLKISCKGSGYSFTSYWIGWVRQMPGKGLEWMGIIYPGDSDTRYSPSFQGQVTISADKSISTAYLQWSSLKASDTAMYYCARLVVRDTEIWGQGTMVTVSSAPQAKSSGSGSESKVDQAVVTQEPSLTVSPGGTVTLTCASSIGAVTSGNYPNWFQQRPGQPPRALIYSTSNKHSWTPARFSGSLLGGKAALTLSGAQPEDEAEYYCLLSYSGARPVFGGGTKLTVLGAAAGSEQKLISEEDLNSHHHHHH
IC50: 46.2 µg/mL
